Results taken from patent US20140087995A1 (published 2014).
Numbered stars: 1 amine (or outer) side, 2 acyl side, 3 side chain; on linkers, the order of the positions; unused ones are H or OH. Bridge positions count the residues as written; N and C are the ends. Side chains are listed from the residue outwards. Ends that are not written are not given here. * marks the point of attachment. C20 diacid = O=C(O)CCCCCCCCCCCCCCCCCCC(=O)*; C18 diacid = O=C(O)CCCCCCCCCCCCCCCCC(=O)*; C16 diacid = O=C(O)CCCCCCCCCCCCCCC(=O)*; γGlu = O=C(O)[C@H](CCC(=O)[*:2])N[*:1]

T1: human calcitonin receptor (human, UniProt P30988 25-474)
T1 sequence (looked up): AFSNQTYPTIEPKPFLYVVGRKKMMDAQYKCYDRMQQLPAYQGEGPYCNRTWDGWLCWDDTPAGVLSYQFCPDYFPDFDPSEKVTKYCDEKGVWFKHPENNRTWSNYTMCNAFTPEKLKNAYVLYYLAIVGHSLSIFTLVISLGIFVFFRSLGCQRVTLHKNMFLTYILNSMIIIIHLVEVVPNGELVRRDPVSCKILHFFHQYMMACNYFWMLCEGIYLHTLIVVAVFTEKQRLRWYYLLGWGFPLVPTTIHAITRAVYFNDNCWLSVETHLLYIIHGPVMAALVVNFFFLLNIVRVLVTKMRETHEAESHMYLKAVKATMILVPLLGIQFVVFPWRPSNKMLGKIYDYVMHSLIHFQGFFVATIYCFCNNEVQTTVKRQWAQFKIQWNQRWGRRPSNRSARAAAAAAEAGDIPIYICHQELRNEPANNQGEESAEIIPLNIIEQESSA

B1: N^ε1-[(4S)-4-carboxy-4-(15-carboxypentadecanoylamino)butanoyl]-[Arg17,Pro21,Pro27,His34]-h-amylin (peptide)
peptide: K([γGlu-C16 diacid])CNTATCATQRLANFLRHSSPNFGAIPSSTNVGHNTY-NH2
modifications: disulfide 2-7; N-terminus assumed
SMILES: CC[C@H](C)[C@H](NC(=O)[C@H](C)NC(=O)CNC(=O)[C@H](Cc1ccccc1)NC(=O)[C@H](CC(N)=O)NC(=O)[C@@H]1CCCN1C(=O)[C@H](CO)NC(=O)[C@H](CO)NC(=O)[C@H](Cc1c[nH]cn1)NC(=O)[C@H](CCCNC(=N)N)NC(=O)[C@H](CC(C)C)NC(=O)[C@H](Cc1ccccc1)NC(=O)[C@H](CC(N)=O)NC(=O)[C@H](C)NC(=O)[C@H](CC(C)C)NC(=O)[C@H](CCCNC(=N)N)NC(=O)[C@H](CCC(N)=O)NC(=O)[C@@H](NC(=O)[C@H](C)NC(=O)[C@@H]1CSSC[C@H](NC(=O)[C@@H](N)CCCCNC(=O)CC[C@H](NC(=O)CCCCCCCCCCCCCCC(=O)O)C(=O)O)C(=O)N[C@@H](CC(N)=O)C(=O)N[C@@H]([C@@H](C)O)C(=O)N[C@@H](C)C(=O)N[C@@H]([C@@H](C)O)C(=O)N1)[C@@H](C)O)C(=O)N1CCC[C@H]1C(=O)N[C@@H](CO)C(=O)N[C@@H](CO)C(=O)N[C@H](C(=O)N[C@@H](CC(N)=O)C(=O)N[C@H](C(=O)NCC(=O)N[C@@H](Cc1c[nH]cn1)C(=O)N[C@@H](CC(N)=O)C(=O)N[C@H](C(=O)N[C@@H](Cc1ccc(O)cc1)C(N)=O)[C@@H](C)O)C(C)C)[C@@H](C)O
B2: N^ε1-[(4S)-4-carboxy-4-(19-carboxynonadecanoylamino)butanoyl]-[Asp14,Arg17,Pro21,Pro27,Pro34,Glu35]-h-amylin (peptide)
peptide: K([γGlu-C20 diacid])CNTATCATQRLADFLRHSSPNFGAIPSSTNVGPETY-NH2
modifications: disulfide 2-7; N-terminus assumed
SMILES: CC[C@H](C)[C@H](NC(=O)[C@H](C)NC(=O)CNC(=O)[C@H](Cc1ccccc1)NC(=O)[C@H](CC(N)=O)NC(=O)[C@@H]1CCCN1C(=O)[C@H](CO)NC(=O)[C@H](CO)NC(=O)[C@H](Cc1c[nH]cn1)NC(=O)[C@H](CCCNC(=N)N)NC(=O)[C@H](CC(C)C)NC(=O)[C@H](Cc1ccccc1)NC(=O)[C@H](CC(=O)O)NC(=O)[C@H](C)NC(=O)[C@H](CC(C)C)NC(=O)[C@H](CCCNC(=N)N)NC(=O)[C@H](CCC(N)=O)NC(=O)[C@@H](NC(=O)[C@H](C)NC(=O)[C@@H]1CSSC[C@H](NC(=O)[C@@H](N)CCCCNC(=O)CC[C@H](NC(=O)CCCCCCCCCCCCCCCCCCC(=O)O)C(=O)O)C(=O)N[C@@H](CC(N)=O)C(=O)N[C@@H]([C@@H](C)O)C(=O)N[C@@H](C)C(=O)N[C@@H]([C@@H](C)O)C(=O)N1)[C@@H](C)O)C(=O)N1CCC[C@H]1C(=O)N[C@@H](CO)C(=O)N[C@@H](CO)C(=O)N[C@H](C(=O)N[C@@H](CC(N)=O)C(=O)N[C@H](C(=O)NCC(=O)N1CCC[C@H]1C(=O)N[C@@H](CCC(=O)O)C(=O)N[C@H](C(=O)N[C@@H](Cc1ccc(O)cc1)C(N)=O)[C@@H](C)O)C(C)C)[C@@H](C)O
B3: N^ε1-[(4S)-4-carboxy-4-(19-carboxynonadecanoylamino)butanoyl]-[Glu14,Arg17,Pro21,Pro27,His34,Glu35]-h-amylin (peptide)
peptide: K([γGlu-C20 diacid])CNTATCATQRLAEFLRHSSPNFGAIPSSTNVGHETY-NH2
modifications: disulfide 2-7; N-terminus assumed
SMILES: CC[C@H](C)[C@H](NC(=O)[C@H](C)NC(=O)CNC(=O)[C@H](Cc1ccccc1)NC(=O)[C@H](CC(N)=O)NC(=O)[C@@H]1CCCN1C(=O)[C@H](CO)NC(=O)[C@H](CO)NC(=O)[C@H](Cc1c[nH]cn1)NC(=O)[C@H](CCCNC(=N)N)NC(=O)[C@H](CC(C)C)NC(=O)[C@H](Cc1ccccc1)NC(=O)[C@H](CCC(=O)O)NC(=O)[C@H](C)NC(=O)[C@H](CC(C)C)NC(=O)[C@H](CCCNC(=N)N)NC(=O)[C@H](CCC(N)=O)NC(=O)[C@@H](NC(=O)[C@H](C)NC(=O)[C@@H]1CSSC[C@H](NC(=O)[C@@H](N)CCCCNC(=O)CC[C@H](NC(=O)CCCCCCCCCCCCCCCCCCC(=O)O)C(=O)O)C(=O)N[C@@H](CC(N)=O)C(=O)N[C@@H]([C@@H](C)O)C(=O)N[C@@H](C)C(=O)N[C@@H]([C@@H](C)O)C(=O)N1)[C@@H](C)O)C(=O)N1CCC[C@H]1C(=O)N[C@@H](CO)C(=O)N[C@@H](CO)C(=O)N[C@H](C(=O)N[C@@H](CC(N)=O)C(=O)N[C@H](C(=O)NCC(=O)N[C@@H](Cc1c[nH]cn1)C(=O)N[C@@H](CCC(=O)O)C(=O)N[C@H](C(=O)N[C@@H](Cc1ccc(O)cc1)C(N)=O)[C@@H](C)O)C(C)C)[C@@H](C)O
notes: also called compound 107
B4: N^ε1-[(4S)-4-carboxy-4-(19-carboxynonadecanoylamino)butanoyl]-[Ala14,Arg17,Pro21,Pro27,His34]-h-amylin (peptide)
peptide: K([γGlu-C20 diacid])CNTATCATQRLAAFLRHSSPNFGAIPSSTNVGHNTY-NH2
modifications: disulfide 2-7; N-terminus assumed
SMILES: CC[C@H](C)[C@H](NC(=O)[C@H](C)NC(=O)CNC(=O)[C@H](Cc1ccccc1)NC(=O)[C@H](CC(N)=O)NC(=O)[C@@H]1CCCN1C(=O)[C@H](CO)NC(=O)[C@H](CO)NC(=O)[C@H](Cc1c[nH]cn1)NC(=O)[C@H](CCCNC(=N)N)NC(=O)[C@H](CC(C)C)NC(=O)[C@H](Cc1ccccc1)NC(=O)[C@H](C)NC(=O)[C@H](C)NC(=O)[C@H](CC(C)C)NC(=O)[C@H](CCCNC(=N)N)NC(=O)[C@H](CCC(N)=O)NC(=O)[C@@H](NC(=O)[C@H](C)NC(=O)[C@@H]1CSSC[C@H](NC(=O)[C@@H](N)CCCCNC(=O)CC[C@H](NC(=O)CCCCCCCCCCCCCCCCCCC(=O)O)C(=O)O)C(=O)N[C@@H](CC(N)=O)C(=O)N[C@@H]([C@@H](C)O)C(=O)N[C@@H](C)C(=O)N[C@@H]([C@@H](C)O)C(=O)N1)[C@@H](C)O)C(=O)N1CCC[C@H]1C(=O)N[C@@H](CO)C(=O)N[C@@H](CO)C(=O)N[C@H](C(=O)N[C@@H](CC(N)=O)C(=O)N[C@H](C(=O)NCC(=O)N[C@@H](Cc1c[nH]cn1)C(=O)N[C@@H](CC(N)=O)C(=O)N[C@H](C(=O)N[C@@H](Cc1ccc(O)cc1)C(N)=O)[C@@H](C)O)C(C)C)[C@@H](C)O
notes: also called compound 93
B5: N^ε1-[(4S)-4-carboxy-4-(17-carboxyheptadecanoylamino)butanoyl]-[Arg17,Pro21,Pro27,His34]-h-amylin (peptide)
peptide: K([γGlu-C18 diacid])CNTATCATQRLANFLRHSSPNFGAIPSSTNVGHNTY-NH2
modifications: disulfide 2-7; N-terminus assumed
SMILES: CC[C@H](C)[C@H](NC(=O)[C@H](C)NC(=O)CNC(=O)[C@H](Cc1ccccc1)NC(=O)[C@H](CC(N)=O)NC(=O)[C@@H]1CCCN1C(=O)[C@H](CO)NC(=O)[C@H](CO)NC(=O)[C@H](Cc1c[nH]cn1)NC(=O)[C@H](CCCNC(=N)N)NC(=O)[C@H](CC(C)C)NC(=O)[C@H](Cc1ccccc1)NC(=O)[C@H](CC(N)=O)NC(=O)[C@H](C)NC(=O)[C@H](CC(C)C)NC(=O)[C@H](CCCNC(=N)N)NC(=O)[C@H](CCC(N)=O)NC(=O)[C@@H](NC(=O)[C@H](C)NC(=O)[C@@H]1CSSC[C@H](NC(=O)[C@@H](N)CCCCNC(=O)CC[C@H](NC(=O)CCCCCCCCCCCCCCCCC(=O)O)C(=O)O)C(=O)N[C@@H](CC(N)=O)C(=O)N[C@@H]([C@@H](C)O)C(=O)N[C@@H](C)C(=O)N[C@@H]([C@@H](C)O)C(=O)N1)[C@@H](C)O)C(=O)N1CCC[C@H]1C(=O)N[C@@H](CO)C(=O)N[C@@H](CO)C(=O)N[C@H](C(=O)N[C@@H](CC(N)=O)C(=O)N[C@H](C(=O)NCC(=O)N[C@@H](Cc1c[nH]cn1)C(=O)N[C@@H](CC(N)=O)C(=O)N[C@H](C(=O)N[C@@H](Cc1ccc(O)cc1)C(N)=O)[C@@H](C)O)C(C)C)[C@@H](C)O

The binders below were run against T1, human calcitonin receptor (assay: cell-based or functional assay).
For B1, the “hCTR funct. EC50 (pM)” value was 2210 pM. With B2 the “hCTR funct. EC50 (pM)” value was 1120 pM. In the case of B3, the “hCTR funct. EC50 (pM)” value is reported as 2540 pM. B4 was tested, and the “hCTR funct. EC50 (pM)” value was 1140 pM. With B5 the “hCTR funct. EC50 (pM)” value was 5850 pM.
